A protein production outcome set (Wang et al. 2014)

Assay: label from the status in PepcDB records

With “MATLPASKSASKVALTSEVEDEGIKEHTFQEIEKLQDLGINAADINKLKGSGYCTILSLIQTTKKELCNVKGISEAKVDKILEVASKIENCSSFITANELVQKRSKVLKITTGSTVFDQTLGGGIESMCITELFGENRCGKTQVCHTLAVTAQLPKSLNGGNGKVCYIDTEGTFRPEKVCKIAERYGLDGEAVLDNILYARAFTHEHLYQLLAISAAKMCEEPFALLVVDSIISLFRVDFSGRGELSERQQKLNKTMSILSKLSEQFNIAILITNQVMSDPGATMTFIANPMKPVGGHVIGHASTIRLSLRKGKGDQRVCKVYDAPNLPEVECIFQLSDKGVIDATD” as the sequence, how does the protein production read?
Its protein production is “failed”.

For “MTEIKYKVITKDAFALPYTIIKAKNQPTKGVIVYIHGGGLMFGKANDLSPQYIDILTEHYDLIQLSYRLLPEVSLDCIIEDVYASFDAIQSQYSNCPIFTFGRSSGAYLSLLIARDRDIDGVIDFYGYSRINTEPFKTTNSYYAKIAQSINETMIAQLTSPTPVVQDQIAQRFLIYVYARGTGKWINMINIADYTDSKYNIAPDELKTLPPVFIAHCNGDYDVPVEESEHIMNHVPHSTFERVNKNEHDFDRRPNDEAITIYRKVVDFLNAITMV”, which protein production is on record?
The protein production was “not failed”.

For “MVTLEYNANSKLITASDAVVALSTETNIDQINVLTTSLIGETNPNFTPQPNEALSKMIKGLFESGMKNLQQKKLNEALKNVSLAIEMAQRKRAPWEAFAIQLPELHFMLRSKIDLCLILGKHLEALQDLDFLLGTGLIQPDVFVRKADCLLKLRQWEEARATCERGLALAPEDMKLRALLIETARNLAEYNGE”, which protein production is on record?
The protein production was “failed”.

For “MDLIGLRIRNIRKIKQLTLKEAAKGIISVPYLANIENGVKVASFETLMHIAKRLEIPEEALLIGNEDLNKELLQELKQIFDLLVFSNTKEAGDRLDQIAANVDLLCESPVIELSFYWLQAGFYYKTWEFSKAREIERKYLNSNEKRVVESFPPDLLSYYYYGQAVKHSHATCDYQLAVEYWEKSIDLTDKAAFQVVFQVGLCINYICLNNYEPALKHIECAWNLIKRFPSKDQERITAILYLYGYINFQIGFMTEAKRKFEEVLVFFNMYPEAKTMYSFLVRFKLAEIERVEGNHELFDEKIVCLYEELMAHEASEIGFNNNDYLVITELMVIFAEQGSVLEASNLLAIINKVTEQVMEINFFVTYTETLLLYHQNKQSSYEKKMLDLLKKIDESNDPALIERVKKHASKHFADSTKYKMAYNILA”, which protein production is on record?
The protein production was “failed”.

With “PVTQVMTPRPVVFRVDATMTINEFLDKHKDTPFSRPLVYSEQKDNIIGFVHRLELFKMQQSGSGQKQLGAVMRPIQVVLNNTALPKVFDQMMTHRLQLALVVDEYGTVLGLVTLEDIFEHLVGE” as the sequence, how does the protein production read?
Its protein production is “not failed”.

For “MPLRFTTRRAEGGSARRPLSIVSCPLFCPSEPNQFSPMLFRQINDAKLAQYAYLIGCQETGEALLVDPERDIDRYLDLAEREGLEITAVTETHIHADFLSGARELAERFDTTLYLSDEGDENWKYEWAQGPKQGGGDYDVTWLHDGDTFQVGSVEVTALHTPGHTPEHLSFLVTDRGGGADEPMGLLTGDFVFVGDLGRPDLLESAAQVEGAMEPSARTLYTSVQRVLEMPDHLQVWPAHGAGSACGKALGAVPQSTLGYEKQFNPMIDAAREGEDAFVEAILADQPEPQIYFARMKRDNKEGMPVLGSLPAPRELTVRELEDAAADEAPLVIDTRLDRSAYMANHIPGSLYAPMNDTFNTVVGSLVEDETTPIVLIADEGDVEEAVRDLVRIGYDNVTGFAEIDTLQRYFQAGGPSETIDEITFADFDAELQDEATGVLDVRYRSEYEEGHVEGALNASYTRMPEYETELPTDKTLLVHCGSGARAAAASSYLARTGHSVKYVNDHFANYEAASEEAVAA”, which protein production is on record?
Its protein production is “failed”.

Which protein production does the source give for “MNSILPSVSTLAVGARPARPNVSVVMVVYRTGEALVESIRHVLAEPLVDEFIIVDNGSSSRDEDMLRSLALTEPRVVLKQGHGNVGFARGANLGAVTAGGEYIVFLNPDANLQPSCVASLVTAFKGQPVPTIVGARVLNTDGSEQRGGRRGDVTPISTVLSFGQLTRRYPKLAGFEIHRENEPLPGAPVPMPTISGACFAMRRADFVALNGFDEGYFLHVEDIDLCWRARRAGGQVLFQPNAEVVHLGHTSLEHPVKVEFHKGVGLTRYFIKRADSLQLFAAAVLLAPAIMLMSVCRPLLWKLTGRPI” here?
The protein production was “failed”.

Which protein production does the source give for “MLRVFHFYGMLRLPRSGIEQSLKGERCTVSTQIRILPENLTNKIAAGEVVERPASVVKELVENSLDAGCRDIIVEIEAGGRRLIRVTDDGSGMSREDALLSLERHATSKIASDDDLFSLCTLGFRGEALPSIASVSRFSLATRQRGAIEGTEIYAEGGRIKEVKACGMAEGTVITVRNLFFNTPARLKFMKSAETEAGHVGDLLTRLAISRPEVRFTYVNDGKTVFRALNGTMEERVAALLGRTIAGALYPLDSTVEGVTVRGLVARPDVSRSAAGHLYTFINGRFIRDRVVQHAVLQAYRNFLERGRYPVVVLFIQVPAGDVDVNVHPTKHEVRFRQQGVVHDVIQGVIEEALRPTPWLRKESQSTVSSPPPERREPATSSERVAEVRELLVNYRPSPAPSRPFFQPLPAVVPAPDQSAEEPDRPMDRGYFSRLAIIGQFHASYILCQDGSDLVIIDQHAAHERVAFERLKAQFAAGGVEGQGLLFPDTLELSHREVAELREHGEELRRIGFDLDEFGGTTWVVKGVPRLLAGKDYLRILRDTLEEFQAVGANRSVADAVEEILTRIACHSVVRGEHPLTTAQIEALFAQMDATDYSTNCPHGRPVLQRLTLAEVERMFKR” here?
The protein production was “failed”.

Which protein production does the source give for “MKGIINMATFKQYKTKSGAFWEAFTSVGKDTNGKAKRMHKRGFKTKKEAQLWTSNVQTDFTKNGFIANDNITFAELYTKWFNEDYKEQVKESTYMITDDIFRLHILPELGSQRVKRITVAQCQSIVHKWLNQGFKTYRRFRTYAISVFDFGVRMELTTRNPMAKTSIPKQKTKPQAPHVDFYEKSELLHFLDCASKHENPQAFMFFRLLAFTGLRRGEALALQWSDINFETNELTVNKTQAVGKRWRTIIQTPKTNTSYRTIVLDPDTAQWLHKWKMTQARQCFELGFNANDPSQLVFTNQQNKLMSPSTVNYFNWSICKKYGLRHIKIHAFRHTFCTLAFEAHAGINEVSKTLGHADLKITEQIYLHVTKKQKNETASKLARYMSEL” here?
Its protein production is “failed”.

For “ELEHQISGTSKEALLDDIRSLIDSASYTYIRQREMKGLGHAILTGRELVGDEPFAVVLADDLCVNEEQGVLAQMVELYKQFRCSIVAVQEVPETETHKYGVIAGEMIKDDIFRIDNMVEKPEPGTAPSNLAIIGRYILTPDIFELIENTEPGKGGEIQITDALMQQAQSGCVIAYKFKGQRFDCGSVEGYIEATNYCYENLYKKASSAELAKTPTVKVSEPA”, which protein production is on record?
The protein production was “failed”.

For “MAGPTLLKESGPREVFCGLTSIVWLHRRMPDAFFLVVGSRTCAHLIQSAAGVMIFAEPRFGTAILSERDLAGLADAHEELDRVARELLQRRPEIRTLFLVGSCPSEVIKLDLARAAERLNDELQGRVRVVNYSGSGIETTFTQGEDGALAALVPLLPSSAERQLLLVGTLADAVEDRLIHLFGRLGIDRVRSLPPRQSTALPPVGPGTTVLLTQPFLTDTARLLRNRGATVLTAPFPLGAEGSRRWMEAAAQAFEVAPSHVATVLDPLMERARIALEPHREVLAGKRIFLLPESQLELPLARFLQRECGMELVEVGTPYLNREQMAEELALLPEGTPVMEGQHVELQLDRVRDSAPDLVVCGMGLANPLEAEGIATKWSIELVFSPIHGIDQAGDLAELFSRPLRRRQLIHPGLHPTQPDQPVHA”, which protein production is on record?
Its protein production is “failed”.

With “MQRANREHLEIISLEEISMLVSSDFDLPEVLQHVTAKVATQLKVSVCNIYLREGDEVVLAATHGFDPAFIGKIRIKIGDGITGSVARDGQYISLSRASQDPRYRYFPELQEEKYNSMLSFPIGDKKEVYGVINLNTTSIRSFHEDEIYFVSIIANLILTAIKLRQQVASSRKAAEASA” as the sequence, how does the protein production read?
The protein production was “not failed”.

Which protein production does the source give for “MTMRVVTAPAEPPQGASHVAPSFTRMDTSVLGRWWWTVDRPMLGAVALLIAAGVFLILAAGPPAAGRIGAQTYHFVQRQFLFVPVAGVLVIAVSLLPVLWVRRIAVLLFALFMVLLLGTLFVSSDIKGASRWIAIGPFALQPSEFVKPTFAVVTAWMFASARTQDRFPGNLIAMLLMAVVGALLVAQPDFGMTMVVACVWGTQFFLAGLSLVWVVLLAAVGMIGAVIAYFALPHVQSRVDRFLDPASGDQYQIRQSMKAFMEGGLFGRGPGEGRVKEFLPDAHTDFIFAVAGEEFGLFLCLTIVALFAFLIIRSAIRLRREQNLFVLIAAGGLLTQLGLQALINMASSLSLIPTKGMTLPFISYGGSSLLSTAVAMGMVLALTRRRAHGERT” here?
Its protein production is “failed”.
